Laboratory results as given in patent US20230416380A1 (AJOU UNIVERSITY INDUSTRY ACADEMIC COOPERATION FOUNDATION, published 2023).
Positions count from the first letter of the chain named.

Columns and labels:
[1] = molecular target: T1, human IL-5Rα on cells (TF-1/IL-5Rα cells stably overexpressing IL-5Rα; human eosinophils) (human, UniProt Q01344 21-420); test: cell-based or functional assay
T1 sequence (looked up): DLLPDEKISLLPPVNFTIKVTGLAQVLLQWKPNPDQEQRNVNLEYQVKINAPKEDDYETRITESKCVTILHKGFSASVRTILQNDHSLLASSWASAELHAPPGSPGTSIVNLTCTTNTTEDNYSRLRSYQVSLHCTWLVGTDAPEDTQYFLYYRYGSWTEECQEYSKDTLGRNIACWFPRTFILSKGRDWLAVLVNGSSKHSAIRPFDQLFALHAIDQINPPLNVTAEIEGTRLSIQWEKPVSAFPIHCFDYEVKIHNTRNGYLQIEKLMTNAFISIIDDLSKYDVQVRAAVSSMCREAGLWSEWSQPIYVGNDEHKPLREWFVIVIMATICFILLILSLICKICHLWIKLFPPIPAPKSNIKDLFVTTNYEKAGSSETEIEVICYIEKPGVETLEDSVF

[2] = molecular target: T2, sIL-5Rα (extracellular domain of human IL-5 receptor alpha subunit, Asp1-Asn313 of SEQ ID NO: 19, C-terminal … (human, UniProt Q01344 21-333)); test: BLI (Octet QKe), comparison of KD values
T2 construct: also called sIL-5Rα antigen protein
T2 sequence: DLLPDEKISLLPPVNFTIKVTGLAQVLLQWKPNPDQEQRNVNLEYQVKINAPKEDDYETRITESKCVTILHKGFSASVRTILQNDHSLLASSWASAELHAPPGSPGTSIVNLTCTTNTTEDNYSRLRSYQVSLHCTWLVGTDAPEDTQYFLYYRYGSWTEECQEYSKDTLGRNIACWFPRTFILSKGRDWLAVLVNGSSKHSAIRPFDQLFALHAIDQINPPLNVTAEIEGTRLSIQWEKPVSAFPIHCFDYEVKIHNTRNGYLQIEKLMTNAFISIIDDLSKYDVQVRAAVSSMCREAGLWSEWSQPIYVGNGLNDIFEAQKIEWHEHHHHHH
Procedure: (§1) Specifically, 1× kinetic buffer was prepared by diluting 10× kinetic buffer (ForteBio, 18-1105) in PBS. […] Affinity was calculated with Octet Data Analysis software 11.0 in a 1:1 binding model.

[3] = molecular target: T2, sIL-5Rα (extracellular domain of human …); test: binding competition ELISA: IL-5-mFc coated (competitor), antibody dilutions plus 100 nM IL-5Rα, anti-his-HRP; 5R65 antibody; IL-5-mFc coated, 100 nM IL-5Rα, anti-his-HRP
Procedure: (§2) Prior to biological efficacy evaluation, binding competition ELISA was performed to determine whether or not anti-IL-5Rα humanized antibodies bind competitively with IL-5 to the IL-5 binding site of IL-5Rα. Specifically, IL-5 (Uniprot code: P05113, Ile20-Ser134) was fused to the G4S linker and the heavy-chain constant region (hinge-CH2-CH3) of mouse IgG2a, was subjected to transient transfection and purified (FIG. 5C). The purified IL-5-mFc proteins were immobilized at a density of 100 ng/well on a 96-well plate at room temperature for 1 hour, and blocked using 0.1% PBST containing 2% skim milk at room temperature for 1 hour. After discarding the solution and then washing the same three times with 0.1% PBST, mixtures of anti-IL-5a antibody [2-fold dilution at 2,000 nM] at various concentrations were prepared and each mixture was added in an amount of 25 μl/well to the blocked plate, 100 nM IL-5Rα was further added at 25 μl/well for 1 hour, followed by reaction at room temperature for 1 hour. […] After discarding the solution and washing three times with PBST, a TMB solution was added in an amount of 50 μl/well, color development was induced at room temperature for 2 minutes and 30 seconds, the reaction was stopped using H₂SO₄ (2N), and the absorbance at 450 nm was measured.

[4] = molecular target: T2, sIL-5Rα (extracellular domain of human …); test: BLI (Octet QKe), antibody on AHC sensor, sIL-5Rα in solution, 1:1 model
Procedure: as §1

[5] = molecular target: T2, sIL-5Rα (extracellular domain of human …); test: competition ELISA: IL-5-mFc coated at 100 ng/well, antibody dilution series mixed with His-tagged sIL-5Rα, bound sIL-5Rα detected with anti-His-HRP; blocked ligand IL-5-mFc
[6] = molecular target: T2, sIL-5Rα (extracellular domain of human …); test: BLI (Octet QKe), antibody on AHC sensor, sIL-5Rα in solution, 1:1 model; remark: listed apart in the source
Procedure: as §1
(§3) Therefore, it was confirmed that the order of affinity was benralizumab>m2B7>hu2B7.

[7] = molecular target: T2, sIL-5Rα (extracellular domain of human …); test: binding competition ELISA: IL-5-mFc coated (competitor), antibody dilutions plus 100 nM IL-5Rα, anti-his-HRP; 5R86 antibody; IL-5-mFc coated, 100 nM IL-5Rα, anti-his-HRP
Procedure: as §2

[8] = molecular target: T3, sIL-5Rα (extracellular domain of human IL-5 receptor alpha subunit, Asp1-Asn313 of SEQ ID NO: 19, C-terminal Avi tag and 6×His tag, expressed in HEK293F) (human) (UniProt Q01344); test: binding competition ELISA: IL-5-mFc coated (competitor), antibody dilutions plus 100 nM IL-5Rα, anti-his-HRP
T3 sequence: T2 sequence

[9] = molecular target: T4, human IL-5Rα on cells (TF-1/IL-5Rα cells stably overexpressing IL-5Rα; human eosinophils) (human) (UniProt Q01344); test: cell-based or functional assay
T4 sequence (looked up): T1 sequence (looked up)

[10] = molecular target: T3, sIL-5Rα (extracellular domain of human IL-5 receptor alpha subunit, Asp1-Asn313 of SEQ ID NO: 19, C-terminal Avi tag and 6×His tag, expressed in HEK293F) (human); test: BLI (Octet QKe), antibody on AHC sensor, sIL-5Rα in solution, 1:1 model
[11] = molecular target: T2, sIL-5Rα (extracellular domain of human …); test: BLI (Octet QKe), antibody on sensor, sIL-5Rα in solution, 1:1 model
Procedure: as §1, §3

B1: 5R65.7 (anti-IL-5Rα humanized antibody, affinity matured from 5R65) (antibody, V domains shown)
VH: QVQLVQSGAEVKKPGSSVKVSCKASGYTFTSYWINWVRQAPGQGLEWIGHIYPNKNENYYNHKFKDKATLTVDKSTNTAYMELSSLRSEDTAVYYCTREFYGRQYYQAMDYWGQGTTLTVSS
VL: DIQMTQSPSTLSASVGDRVTITCKASQNVGTAVAWYQQKPGKAPKLLIYWASTRHTGVPDRFSGSGSGTDFTLTISSLQPDDFATYYCQQFGRYPYTFGSGTKVEVK
[1]
  abs IC50, inhibition of IL-5-dependent proliferation of TF-1/IL-5Rα cells: 0.57 nM

B2: 5R65 (anti-IL-5Rα humanized antibody) (antibody, V domains shown)
VH: B1 VH with E99D, F100Y, Q104S, Q107Y
VL: B1 VL
notes: Only VH-CDR2 of hu2B7 was diversified, the light chain is that of hu2B7; also called 5R65 antibody
[2]
  affinity relative to the benralizumab analogue: ~2 fold
[3]
  IC50: 9.5 nM

B3: 5R68 (anti-IL-5Rα humanized antibody) (antibody, IgG1, V domains shown)
VH: QVQLVQSGAEVKKPGSSVKVSCKASGYTFTSYWINWVRQAPGQGLEWIGHIYPTATIAVYNDKFKDKATLTVDKSTNTAYMELSSLRSEDTAVYYCTRDYYGRSYYYAMDYWGQGTTLTVSS
VL: B1 VL
[4]
  Kd: 24.1 nM
  koff: 0.000566 s⁻¹
  kon: 23500 M⁻¹ s⁻¹
[5]
  IC50: 28.8 nM

B4: 5R80 (anti-IL-5Rα humanized antibody) (antibody, IgG1, V domains shown)
VH: B3 VH with T54Q, A55K, I57L, A58T, V59I, D62H
VL: B1 VL
[4]
  Kd: 16.2 nM
  koff: 0.000365 s⁻¹
  kon: 22500 M⁻¹ s⁻¹
[5]
  IC50: 24.2 nM

B5: hu2B7 (humanized m2B7) (antibody, V domains shown)
VH: B3 VH with T54S, A55E, T56S, I57Y, A58T, V59N, D62Q
VL: B1 VL
notes: Expressed from plasmids encoding HC and LC and purified on protein A; also called humanized antibody hu2B7
[6]
  Kd: 47.8 nM
  koff: 0.00106 s⁻¹
  kon: 22200 M⁻¹ s⁻¹
[5]
  IC50: 57.4 nM

B6: 5R86 (anti-IL-5Rα humanized antibody) (antibody, IgG1, V domains shown)
VH: B3 VH with A55S, T56S, I57V, A58K, V59F, D62N
VL: B1 VL
[4]
  Kd: 11.8 nM
  koff: 0.000325 s⁻¹
  kon: 27600 M⁻¹ s⁻¹
[7]
  IC50: 14.1 nM

B7: benralizumab analogue (benralizumab variable regions with an IgG1 constant region) (antibody, INN chains, looked up, V domains shown)
VH: EVQLVQSGAEVKKPGASVKVSCKASGYTFTSYVIHWVRQRPGQGLAWMGYINPYNDGTKYNERFKGKVTITSDRSTSTVYMELSSLRSEDTAVYLCGREGIRYYGLLGDYWGQGTLVTVSS
VL: DIQMTQSPSSLSASVGDRVTITCGTSEDIINYLNWYQQKPGKAPKLLIYHTSRLQSGVPSRFSGSGSGTDFTLTISSLQPEDFATYYCQQGYTLPYTFGQGTKVEIK
modifications: fucosylated IgG1
[8]
  IC50: 9.8 nM
[9]
  absolute IC50 (Abs IC50), inhibition of IL-5-dependent proliferation of TF-1/IL-5Rα cells: 1.99 nM
[10]
  Kd: 26.8 nM
  koff: 0.0011 s⁻¹
  kon: 41100 M⁻¹ s⁻¹

B8: m2B7 (anti-IL-5Rα mouse antibody) (antibody, V domains shown)
VH: QVQLQQPGAELVRPGASVKLSCKASGYTFTSYWINWVKQRPGQGLEWIGHIYPSESYTNYNQKFKDKATLTVDKSSSTAYMQLSSPTSEDSAVYYCTRDYYGRSYYYAMDYWGQGTSVTVSS
VL: DIVMTQSHKFMSTSVGDRVSITCKASQNVGTAVAWYQQKPGQSPKLLIYWASTRHTGVPDRFTGSGSGTDFTFTISNVQSEDLADYFCQQFGRYPYTFGGGTKLEIK
notes: also called mouse antibody m2B7; mB7
[11]
  Kd: 40.2 nM
  koff: 0.000834 s⁻¹
  kon: 20700 M⁻¹ s⁻¹
